# According to the DeepSol protein solubility set:
# Test: soluble on expression in E. coli; label from the status in PepcDB or PDB records
row,Sequence,soluble on expression in E. coli
1,MSLTETCDRFALIGAGPMGLAMAKVMLEQGIAFDGFELHSDVGGLWDIDGPRSTMYESAHLISSKRMTEFTDFPMEEAVAEYPSHRELKRYFHAFAARYGLRDHYRFGAEVLRCEPLGEPGAGWRVIWRDAEGEHTETYAGVMIANGTLSEPNMPTFQGRFDGELIHSSAYRHPSQFDGKRVLIVGAGNSGCDIAVDAIHHGALCDLSMRRGYYFVPKYVFGKPADTLGGMIKLPMWLKRRVDGMILKWFVGDPQKYGFPKPDYQLYESHPVVNSLVLYHAGHGDLRIRPDIDRFDGRRVIFADGSSEEYDMILAATGYKLFYPFIDRDLLNWQGDAPHLYLNALHPERDDLFVLGMIEASGLGWQGRHEQAEMVARYITGLRRGGAAAAELKAAKSAGFERATGGMNYLKLARMAYYVDKATYRGAVTGWIDRLKRAQSEGHHHHHH,soluble
2,MSLTFHEIRFPEDISYGSTGGPEFSTSIVQTNNGSEYRKVNLSYSRNKYNIMYNMKSEDQLLKLINFFYVHKGKAIGFRFKDWSDYKAKKEHIGIGNDKQKKFQIIKTYSIDQHSYIRKITKPVINTVKIYYDDIEKVDGFSVNFSNGQIEFNTPPHNGVTIYADYEFDVPVRFDSDYLPYSMDNYNEHNCNNIALIEIKTEGHHHHHH,soluble
3,MSLTGNPPNPAGIKTDYLWKKILTPQGLTDILENYAQVVEEKDEKTGKKKKVQIFPRYHQLDVVRKLLAHAEWHGAGMRYLVQHSAGSGKSNSIAWLAHQLISLKKDDKEIFDSIIVITDRRVLDKQIRDTIKQFAQVGSTVGHAERSGDLRKFIESGKKIIISTVQKFPFILDEIGNEHRGRKFAIIIDEAHSSQGGRTAAAMSEALSDSKDQKDPEDTINDALQKRMEARKMLPNASYFAFTATPKNKTLELFGEPYKDGDKIKHRPFHNYTMKQAIQEGFILDVLRYYTPVNSYYKLIKTVESDPEFDTKKAKKKLRKYVESHDYAIRLKAEIIVDHFQEQVIALNKIGGQARAMVVTNGIERAIQYYHAIRDYLLELNSPYKAIVAFSGEHEYGGVKVTEATLNGFPSSQIEDKIEEEPYRFLICADKFQTGYDEPLLHTMYVDKVLSGIKAVQTLSRLNRAHPKKHDVFVLDFMNDTDTIQDAFSDYYRTTVLSDETDPNKLHDLKSDLDSYQAYSPEQIEQFVELYLGGADRDKLDPILDVCVATYKDHLDEDEQVDFKSKAKAFSRTYGFLASILPYTNADWEKLSIFLNFLIPKLPAPREEDLSKGILEAIDMDSYRVEKQAVVNIQLPDSDSEIEPVPTEAGGFKPEPELDRLSNILKTFNDQFGNIRWTDSDRVHRLITEEIPARVAADVAYQNAKKNSDKQNAKIEHDKALARVMIALMKDDTQLFKLFSDNESFRRTLTDAIFERTYSEGHHHHHH,not soluble
4,MSLTIEDNHGTEGISLPIEGVAATDNRAFELLDRWGVELVAAPLQLVPFTVTGYTEEGGVANLGSHREPDLEALAAAQPSLIINGQRFAQYYDDIIALNPDATVVELDPRDGEPLDQELIRQAETLGEIFGEEEDAAKIVADFESALERAKTAYAAISDQTVMAVNVSGGNIGYIAPSVGRTYGPIFDLVGLTPALEVGNASSDHEGDDINVEAIAAANPDLILVMDRDGGTSTRNEADYVPAEQIVSDNEALANVKAVTDGYVYYAPADTYTNENIITYTEILNGMADMFEKAAQEGHHHHHH,soluble
5,MSLTIEDVAKLAGVSIATVSRVINGSGYVSEKTRYKVWKAIEELGYKPEISAKLLASKGKLFNIYVFASKRILSPLQNNGILGEFYGVIIRAIEENCGRLGMNVELKMLENFSESNGADGYIFIGGDLSEKTLKEIKSRKKPFVLVDHYIPGERVDCVISDGYDGAVYATNYLISKGFKRIVHVHGPLHPYGFKMRYDGYKDAMEKAGLMPRFYECDDTEEGTRKVIDIMLNSYGTPEAIFTSNDSIAFWVIKRLKEHNIKVPDDVSVIGFDDIVDAENFDPPLTTLRVFKYEMGCLACKRLHELLTGINPHPVRILVFTQFVKRKSTKEGHHHHHH,not soluble
6,MSLTIKVFSPKYPTELEEFYAERIADNPLGFIQRLDLLPSISGFVQKLREHGGEFFEMREGNKLIGICGLNPINQTEAELCKFHINSAYQSQGLGQKLYESVEKYAFIKGYTKISLHVSKSQIKACNLYQKLGFVHIKEEDCVVELGEETLIFPTLFMEKILSEGHHHHHH,soluble
7,MSLTIYVYVLDTLADWEIGYVNSELNSRRFFKKDANRVSLKTVSYSKEPIKTMGGMTIVPDCVIDDIVMSETSVLLLPGADTWNNLEHKAIIKKASELLALNATVAAICGATVALANHGLLDNRPHTSNGAGFLEMFSSSYKGQNSYINELSVWDNNLITASSAGALLWAKQIIAHLDVFESNTLESWYAYFNTGDPKHFYALMESLPDNNEGHHHHHH,soluble
8,MSLTKSSKYDTAFLKENMMGPNAIKIIEELLESLKLEEGMRVLDLGCGKGLTSIFLAKEYGVTVFATDLWISATENYERIKSMGLEDKIIPIHAEAHDLPFAQEYFDVAISVDAYHYFGIEEDYLTKHLAPLVKKGGKIAVAVPGLKKEFENGVPEKLQPYWFEDMTLTLHSLDWWYNLWKKADSVSIEECKELKCLEETWQDWLSCDNDYARRDIGMMEAEGGNYFNLVSIIATRLEGHHHHHH,soluble
9,MSLTKYHDLKNKVIVIAGGIKNLGALTAKTFALESVNLVLHYHQAKDSDTANKLKDELEDQGAKVALYQSDLSNEEEVAKLFDFAEKEFGKVDIAINTVGKVLKKPIVETSEAEFDAMDTINNKVAYFFIKQAAKHMNPNGHIITIATSLLAAYTGFYSTYAGNKAPVEHYTRAASKELMKQQISVNAIAPGPMDTSFFYGQETKESTAFHKSQAMGNQLTKIEDIAPIIKFLTTDGWWINGQTIFANGGYTTREGHHHHHH,soluble
10,MSLTMNSEDKFKILQIADLHFSTGYGKCLDPQPPSSAKGCKADSRTLEFINKVLDLEKPDMVVLTGDQIFGDASPDLESSAFKALNPFVERKIPFAITVGNHDDEGSLKREEIMGLYADMPYSVAAMGPASIDGFGNYVVTVQGKSSKATALSLYFVDSHAYSKTPKVTPGYDWIKENQLIYLKQEAESIQNSVEKYRKSNKIPLAMAFFHIPLPEFRNLNQPFIGENREGVTAPRYNSGARQVLSEIGVSVASVGHDHCNDYCLQDTQQSLSPGDNKMWLCFGGGAGLGGYGGYNGYIRRMRVYELDTSKGEIKTWKRTEDNPGNIIDEQVLVSNGDVVNEGHHHHHH,soluble
11,MSLTNFVCHTLYHLLITIIKLKDKENTRIFICDTITDYETWVKILNDQGIRTESFKEFAYREQLQNKNIEEVMELVDSDLNHYFERVDTQVYLFNDDTLIGRYMVYLGKNYHLIEDGYNCFQAKLFLGGSVVKRVIKTYLFKKYVPYGFSKYCLSIEVNSLVGLPHDIRSKKYKELPRKKLFDSLNKEQKSLIFKIFKTKPLTITPKSVLLLTQPLAQDKWYKTPTERFQSIQEQYDYFDDIVQEYRTLGYNVYLKVHPRDVVDYSKLPVELLPSNVPMEIIELMSTGRFECGITHSSTALDSLTCVDKKITLVDLKDIKEGHHHHHH,not soluble
12,MSLTNLFQDDSLTLHTDLYQLNMMKAYFDDGLHERRSVFEVFFRDMPFDSGFVVFAGLERIIHYMQNLRFTETDIAYLHDELGFDGPFLEYLRNFKFKGNILAAKEGEFVFKTEPILQVEASLAEAQLIETALLNIVNFQTLIATKAARIRSVIDDETFAEFGTRRAQEMDAAIWGTRAAYIGGCDSTSNVRAGKIFGIPVSGTMAHAMVQAYRDELEAFRSYAKTHFDSIFLVDTYDTLKSGVPNAIKVAKEMGDKINFIGIRLDSGDMAFLSKKARQMLDEAGFTEAKIFASSDLDEHTILSLKAQKAKIDSWGVGTKLITAYDQPALGAVYKMAAIADENDILQDSIKLSSNTEKVSTPGKKKVYRIITNEDGLKAEGDYIALADESLENVDKLTMFHPVHTYIMKTVENFTARELLVPIFQNGELVYDMPSLDEIKAYKEENLALLWDEYKRTVRPEQYPVDLSVKCWKNKMRNIEKVRKSVQLHSPVELDMPFEGHHHHHH,soluble
13,MSLTPQQVFVKCHFDYNPYNDNLIPCKEAGLKFSKGEILQIVNREDPNWWQASHVKEGGSAGLIPSQFLEEKRKAFVRRDWDNSGPFCGTISSKKKKKMMYLTTRNAEFDRHEIQIYEEVAKMPPFQRKTLVLIGAQGVGRRSLKNRFIVLNPTRFGTTVPFTSRKPREDEKDGQAYKFVSRSEMEADIKAGKYLEHGEYEGNLYGTKIDSILEVVQTGRTCILDVNPQALKVLRTSEFMPYVVFIAAPELETLRAMHKAVVDAGITTKLLTDSDLKKTVDESARIQRAYNHYFDLIIINDNLDKAFEKLQTAIEKLRMEPQWVPISWVYEGHHHHHH,soluble
14,MSLTPRFIDLHTHTTASDGSDSPADLVRKATEAGLAAVAVTDHDTVAGLDEAVAMGHETGIEVVRGCELGVRSEYGEIHILGLWLPEKPETLLDAMKELRRHRNERNERIVDNLRTLGMDITYEEVRALSGGVSVGRPHIALALLRHGYIRTPQEAFDRFIGPGAPAYAPKKVFSPAEGVRLLASCGATVAIAHPMLLRCPEEWLDDTVADLKVAGLDAIEAYHSEHSHKDERRCVDIADRHGLVLTGGSDYHGKAKPAISLGRGREGHHHHHH,not soluble
15,MSLTPVISAYNWVPPPARGLVRDLRIRWALEELGRPYAVETVLHQDKTAYRAKQPFGQVPAYDDGEVQLFESGAIVLHIAEQDERLLPRDPAARARAIGWMFCALNTLEVPLLQLAELNIFSAGQAWTEGARPKVERWVRQRLGQLAARLGDKTYLDGETFTAGDLLVADVLRQAPDAMLAETPTLVAYRDRCTARPAFQKALAAQLADLNGPPPPGWGEGHHHHHH,soluble
16,MSLTQAQGAQQYVNINPPMPSDTPGKIEVLEFFAYTCPHCAAIEPMVEDWAKTAPQDVVLKQVPIAFNAGMKPLQQLYYTLQALERPDLHPKVFTAIHTERKRLFDKKAMGEWAASQGVDRAKFDSVFDSFSVQTQVQRASQLAEAAHIDGTPAFAVGGRYMTSPVLAGNDYAGALKVVDQLIVQSREGHHHHHH,soluble
17,MSLTSDTKEKVEYSTDKYKVETNRFWDNWFISVGAGGQVYFGDHDKQIDFGDRIAPALDIAIGKWFTPGIGIRFMYSGLKSKGATRDDWECDITHGTGEHVPGWAGVPGDDLQYSKYKMSNLHADVLFNVLNLFGGYNENRKWDLSPYAGLGWARVYDSPSSKEVSANLGILTSWHFCDVLALNLDVRGMFVNDRFDGEGGGRFGEGNLSATIGLTYKFKQRSWDRSKTVYRYNYGDLESMRRKLNDMSAENDRLKKALADGDKQKAQTIVKKIASANLVTFKINRTKLSNEARANLGLLAEIIKSGDPETVYTITGYADAGTGSSKGNERLSKERAENVYDCLVKEFGVSEKQLRIDYKGGVDNMFYNDPRLSRAVITRGEEGHHHHHH,not soluble
18,MSLTSKMMAFLPYFLELKGKRVNIQALINDRVSQAIEAAGAPAGTPALVRQSAKAQFGDYQANGIMGAAKQLGTNPREFAQKVLDVLNLEGIASKTEIAGPGFINIFLSEEFLAAQAEAALADARLGVAQEAPKTIVADYSAPNVAKEMHVGHLRSTIIGDAVVRTLEFLGHKVIRANHIGDWGTQFGMLIANLERVQKASGEVSMELSDLEAFYRESKKLYDEDEQFAETARNYVVKLQGGDPFCLEMWKKLVDVTMIQNQRNYDRLNVSLTRENVMGESMYNDMLPQIVSDLKAKGLAVEDDGAQVVFLEEFKNKDGEPMGVIIQKRDGGFLYTTTDIACAKYRYETLGADRVLYFIDSRQHQHLMQAWTIVRKAGYIPENVSLEHHAFGMMLGKDGRPFKTRAGGTVRLADLLDEAQERAKALIESKNPELSAEEKANIANTVAMAAVKYADLSKHRTTDYVFDWDNMLAFEGNTAPYMQYAYTRVASVFAKAGVDMNELTGHIQITEEKEKALIAKLLQFEEAVQSVAREGQPHIMCSYLFELAGIFSSFYEACPILVAEQESIKQSRLKLAALTAKTIKQGLALLGIDTLERMEGHHHHHH,soluble
